Three molecules from publication PMC4660055 can be followed below.

Data set [1] deals with PmrA (double-substitution W181G/I220D variant), BeF3^−-activated (Klebsiella pneumoniae). The data set is described as follows: crystal structure; BeF3^−-activated PmrA dimer mixed 1:1 with 25-bp or 26-bp pbgP promoter DNA in 20 mM Tris-HCl pH 8.0, 100 mM NaCl, 2.65 mM BeF3^−; three copies of the complex (complex-1, -2, -3) in two crystal forms.
For data set [2], the target named is T1, PmrA R210A (Klebsiella pneumoniae, UniProt W9BNR5 1-223, R210A).
T1 sequence: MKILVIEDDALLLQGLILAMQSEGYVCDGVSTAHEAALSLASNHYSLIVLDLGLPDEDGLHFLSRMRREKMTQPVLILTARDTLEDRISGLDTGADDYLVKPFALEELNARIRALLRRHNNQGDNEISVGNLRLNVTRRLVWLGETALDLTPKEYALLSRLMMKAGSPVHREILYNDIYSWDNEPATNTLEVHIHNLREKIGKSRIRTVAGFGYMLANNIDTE
The experiment in a line: fluorescence polarization; BeF3-, Mg2+ (activation); FP: 10 mM sodium phosphate, 15 mM NaCl, pH 7.0, 298 K, 6 nM FAM-DNA; proteins activated with 5.3 mM BeCl2, 35 mM NaF, 7 mM MgCl2. NMR: 20 mM Tris-HCl, 100 mM Na. For orientation: Fluorescence polarisation rises when a labelled molecule tumbles more slowly, as on binding a larger partner.

Data set [3] concerns the target T2, PmrA N188A (Klebsiella pneumoniae, UniProt W9BNR5 1-223, N188A).
T2 sequence: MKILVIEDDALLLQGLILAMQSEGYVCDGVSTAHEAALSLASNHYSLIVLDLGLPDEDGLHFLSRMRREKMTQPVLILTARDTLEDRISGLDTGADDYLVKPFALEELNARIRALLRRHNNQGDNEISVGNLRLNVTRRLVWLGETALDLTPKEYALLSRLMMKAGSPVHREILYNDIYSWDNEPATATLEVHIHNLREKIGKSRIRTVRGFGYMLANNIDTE
The data set is described as above.

Data set [4] deals with T3, WT-PmrA (Klebsiella pneumoniae, UniProt W9BNR5 1-223).
T3 sequence: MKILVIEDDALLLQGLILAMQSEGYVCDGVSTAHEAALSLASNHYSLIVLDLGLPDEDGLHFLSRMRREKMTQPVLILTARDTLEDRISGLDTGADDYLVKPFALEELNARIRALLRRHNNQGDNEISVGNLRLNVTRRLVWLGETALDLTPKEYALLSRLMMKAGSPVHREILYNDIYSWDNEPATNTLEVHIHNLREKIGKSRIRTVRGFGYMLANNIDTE
The data set is described as above.

The target of data set [5] is T4, PmrA (double-substitution variant) (Klebsiella pneumoniae, UniProt W9BNR5 1-223, W181G;I220D).
T4 sequence: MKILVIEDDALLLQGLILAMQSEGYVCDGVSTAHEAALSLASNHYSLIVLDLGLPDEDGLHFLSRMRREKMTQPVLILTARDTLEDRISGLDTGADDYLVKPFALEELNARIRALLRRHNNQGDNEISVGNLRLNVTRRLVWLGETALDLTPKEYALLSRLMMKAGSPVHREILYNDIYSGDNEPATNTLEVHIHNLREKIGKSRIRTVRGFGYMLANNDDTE
Described as above.

The target of data set [6] is T5, PmrA N196A (Klebsiella pneumoniae, UniProt W9BNR5 1-223, N196A).
T5 sequence: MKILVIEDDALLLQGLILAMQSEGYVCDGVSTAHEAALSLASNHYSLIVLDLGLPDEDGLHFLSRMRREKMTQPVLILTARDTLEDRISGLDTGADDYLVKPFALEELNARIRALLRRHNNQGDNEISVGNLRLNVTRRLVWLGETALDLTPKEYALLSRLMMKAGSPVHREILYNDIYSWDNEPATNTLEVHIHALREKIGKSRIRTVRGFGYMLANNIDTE
Described as above.

The target of data set [7] is T6, PmrA N176A (Klebsiella pneumoniae, UniProt W9BNR5 1-223, N176A).
T6 sequence: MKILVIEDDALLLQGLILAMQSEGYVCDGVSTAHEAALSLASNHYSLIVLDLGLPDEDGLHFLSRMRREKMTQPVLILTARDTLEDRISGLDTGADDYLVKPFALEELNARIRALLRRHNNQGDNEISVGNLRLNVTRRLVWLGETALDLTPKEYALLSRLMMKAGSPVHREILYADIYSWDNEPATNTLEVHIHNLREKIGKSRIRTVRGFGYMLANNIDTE
Described as above.

Data set [8] addresses T4, PmrA (double-substitution variant). The data set is described as follows: X-ray crystallography (3.8 A); BeF3-, Mg2+; FP: 10 mM sodium phosphate, 15 mM NaCl, pH 7.0, 298 K, 6 nM FAM-DNA; proteins activated with 5.3 mM BeCl2, 35 mM NaF, 7 mM MgCl2. NMR: 20 mM Tris-HCl, 100 mM Na.

In turn, “PmrA (double-substitution W181G/I220D variant), BeF3^−-activated (natural protein)” came in with a stoichiometry N in data set [1] of 2.

B1: 25-bp FAM-labelled DNA (FP) (dsDNA)
DNA 1: ATTTCTTAATATTATCCTAAGCAAG
DNA 2: TTGCTTAGGATAATATTAAGAAATC
Turning to B1, the Kd was determined as 3.037 ± 0.0117 µM in data set [2]; 762 ± 12.3 nM in data set [3]; 194 ± 7.7 nM in data set [4]; 201 ± 8.2 nM in data set [5]; 399 ± 10.9 nM in data set [6]; 365 ± 11.6 nM in data set [7].

B2: 26-bp pmra box DNA (crystal) (dsDNA)
DNA 1: ATTTCTTAATATTATCCTAAGCAAGG
DNA 2: CTTGCTTAGGATAATATTAAGAAATC
For B2, in data set [8], the binding result is “binds”.

In general, stoichiometry N refers to a count of units in the complex or per binding partner. As usually defined, the Kd is the free concentration of one partner at which half of the binding sites on the other are occupied at equilibrium, for simple one-to-one binding. Low readings indicate higher affinity, high ones lower affinity.
